In article PMC11162806 (Nucleic Acids Research, 2024) one finds Kd data, which are given here for two molecules.

For this assay, the target named is T1, TwinStrep-tagged UPF1 CH domain (residues 110-282) (human, UniProt Q92900 110-282).
T1 sequence (looked up): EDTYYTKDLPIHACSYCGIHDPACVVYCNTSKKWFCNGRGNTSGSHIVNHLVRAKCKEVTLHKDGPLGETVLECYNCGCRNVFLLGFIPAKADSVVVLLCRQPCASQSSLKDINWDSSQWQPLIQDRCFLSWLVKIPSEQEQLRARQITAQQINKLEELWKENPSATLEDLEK
Nature of the assay: ITC. In general terms: Isothermal titration calorimetry measures the heat released or taken up as one component is titrated into another.

By Kd is commonly meant the free concentration of one partner at which half of the binding sites on the other are occupied at equilibrium, for simple one-to-one binding. Read a low Kd as a tighter complex. Regarding EKQESKNPKQELRGRGRGILILPAHTTLSVNSAGSPESAPL (domain or fragment, human, UniProt Q86US8 390-430, looked up) [MBP-tagged SMG6 residues 390-430 (SMG6 CH-binding domain)], binding was put at a Kd of 4.28 ± 0.25 µM.

B1: MBP-tagged UPF2 residues 1095-1250 (UPF2 CH-binding domain) (domain or fragment, human, UniProt Q9HAU5 1095-1250, looked up)
chain: VMIKGGGLKHVPCVEDEDFIQALDKMMLENLQQRSGESVKVHQLDVAIPLHLKSQLRKGPPLGGGEGEAESADTMPFVMLTRKGNKQQFKILNVPMSSQLAANHWNQQQAEQEERMRMKKLTLDINERQEQEDYQEMLQSLAQRPAPANTNRERRP
B1 returned a Kd of 1.46 ± 0.25 µM.
